T1: MtrAC (MtrA DNA-binding domain) (UniProt P9WGM7 131-228)
T1 sequence: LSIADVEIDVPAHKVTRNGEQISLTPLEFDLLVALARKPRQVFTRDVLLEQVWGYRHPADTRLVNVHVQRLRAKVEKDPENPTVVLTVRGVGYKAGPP


Tests used:
[1] = biological target: T1, MtrAC (MtrA DNA-binding domain); assay: fluorescence polarization
PhoP = PhoP (UniProt P71814 1-247); assay: fluorescence polarization

Binder	Kd [1] [nM]	binding result (PhoP)
dnaA promoter DNA (dsDNA) DNA 1: GGCGGTGTAGTTATCACGCCGTTT DNA 2: AAACGGCGTGATAACTACACCGCC	1230 ± 260	–
PhoP DNA (from PhoP-DNA complex, 5ED4) (dsDNA) DNA 1: GATTCACAGCTGATTCACAGCATCTA DNA 2: TAGATGCTGTGAATCAGCTGTGAATC	–	binds
